In patent US8221990B2, “Screening GPR12 receptor for substances having Nesfatin-1-like action, or which regulate Nesfatin-1 action” (Teijin Pharma Limited, priority 2007, dated 2012):

Key:
mouse GPR12 = target: T1, mouse GPR12 (Mus musculus, UniProt P35412); assay: cAMP production in CHO-K1-cell stable expression system (CHO-K1-GPR12); assay type: cell-based; conditions: CHO-K1-GPR12, peptide 10^-9 M, Forskolin 10^-5 M, 30 minutes
T1 construct: expressed in transfected cells
T1 sequence (P35412 1-334): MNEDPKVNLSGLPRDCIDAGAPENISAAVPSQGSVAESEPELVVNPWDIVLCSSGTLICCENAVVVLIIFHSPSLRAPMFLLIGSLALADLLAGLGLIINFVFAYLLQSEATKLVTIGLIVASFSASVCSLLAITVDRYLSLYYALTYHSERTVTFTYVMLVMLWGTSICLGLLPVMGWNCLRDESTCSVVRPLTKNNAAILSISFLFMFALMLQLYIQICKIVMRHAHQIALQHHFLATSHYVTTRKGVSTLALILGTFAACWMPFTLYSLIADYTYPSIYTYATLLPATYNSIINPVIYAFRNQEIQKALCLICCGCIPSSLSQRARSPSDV
Procedure: The preparation of cells stably expressing GPR12 was conducted by a conventional method, and hereinafter described briefly. A vector (pcDNA3.1-GPR12) in which a gene (cDNA) encoding mouse GPR12 (SEQ ID NO: 8) was inserted at the downstream of a CMV promoter of pcDNA3.1 (TM) (Invitrogen Corporation) was prepared, 10 μg of the vector was mixed with 250 μL of medium OPTI-MEM™ (Invitrogen Corporation), and 10 μg of Lipofectamine™ 2000 Reagent (Invitrogen Corporation) was mixed with 250 μL of medium OPTI-MEM™, 5 minutes later both mixtures were mixed, and the resultant mixture was left over at room temperature for 20 minutes to prepare a transfection reagent. Chinese hamster ovary cells (CHO-K1) [ATCC Cat. No. CCl-61] plated onto a 6-well plate at 1.5×10^6 cells/well on the previous day in advance were washed with medium OPTI-MEM™ once, and the above-mentioned transfection reagent (vector and Lipofectamine™ 2000 Reagent) was added to the cells dropwise to perform transfection. The resultant transfected cells were incubated at 37° C. for 5 hours in a CO2 incubator, and then the medium was replaced by Ham's F12 medium. Further, the next day the medium was exchanged with Ham's F12 medium containing 100 μg/mL of Geneticin® (Invitrogen Corporation), and furthermore the next day the medium was exchanged with the same medium containing 200 μg/mL of Geneticin®, and the following day the medium was exchanged with the same medium containing 700 μg/mL of Geneticin®, and after that, culturing was continued under the conditions of 37° C. and 5% CO2 in a medium containing Geneticin® at the same concentration. […]
The measured intracellular cAMP level was evaluated in terms of a ratio (Fold) of each intracellular cAMP level with respect to the mean of the intracellular cAMP level in the (−) group that is set as unity, in which CHO-K1-GPR12 cells were cultured in the medium containing no peptide.

mGPR12 = target: T2, mGPR12 (Mus musculus, UniProt P35412); assay: CREB phosphorylation in CHO-K1-cell stable expression system (western blotting); assay type: cell-based; parameters: expressed in transfected cells; conditions: CHO-K1-mGPR12 cells
T2 sequence (P35412 1-334): T1 sequence (P35412 1-334)
Procedure: Using Nesfatin-1M30 (Mid-segment) as a test substance, the method for bringing the test substance into contact with cells was conducted as follows. The confluent CHO-K1 cells and CHO-K1-mGPR12 cells were recovered in 10-cm dishes, plated onto 10-cm dishes by dividing the cell colony in four quarters, and cultured for 2 days in Ham's F12 medium (as for CHO-K1-mGPR12, 700 μg/mL of Geneticin® was contained). After removing the medium, the resultant cultured cells were washed once with the medium containing no Geneticin®, and then Ham's F12 medium containing 10^−9 M of Nesfatin-1M30 (Mid-segment) peptide was added to the cells. […] SDS-gel electrophoresis was conducted by using the protein extracts from each cells; and then the protein was transcribed into Amersham hybond-P[…] (GE Healthcare); and using anti-phosphorylation CREB antibody (Cell Signaling Technology, Inc., Catalog No. #9191) for detecting the phosphorylated CREB, the phosphorylated CREB was detected with an ECL plus western blotting detection reagents (GE Healthcare) kit, in accordance with the attached protocol. […]
Further, the concentration dependence was examined by using Nesfatin-1M30 (Mid-segment: SEQ ID NO: 11). […] Subsequently, cellular proteins were extracted, and the phosphorylated CREB (p-CREB) was detected by a western blotting method.

intracellular cAMP level compared with the group (-) cultured in medium containing no peptide (mouse GPR12): about 5 fold
phosphorylation of CREB (p-CREB band), time course (mGPR12; 10^-9 M, 15 minutes or later after contact): phosphorylation of CREB was induced
Substance: Nesfatin-1M30: mid-segment of Nesfatin-1, human-derived Nesfatin-1M30, SEQ ID NO: 11 (PDTGLYYDEYLKQVIDVLETDKHFREKLQK; listed as Homo sapiens)
phosphorylation of CREB, concentration dependence (mGPR12; 10^-12 M to 10^-9 M, 15 minutes): enhanced depending on the M30 peptide concentration
